The values below come from patent US20240352419A1, “METHODS AND COMPOSITIONS FOR DIFFERENTIATION OF PLURIPOTENT STEM CELLS AND DERIVED HEMATOPOIETIC LINEAGE CELLS” (NUWACELL BIOTECHNOLOGIES CO., LTD., priority 2022, published 2024).

One data set concerns K562 cells. Kind of data set: Cytotoxicity of Stage 3 iNK cells by CFSE/7AAD assay. The data set is classed as cell-based. The conditions noted are these: added to Stage 3 medium (IL-10 20 ng/mL, IL-18 50 ng/mL), E:T 3:1, 4 hr, FIG. 13A. As for the experimental part: hiPSCs were prepared as described in CN108373998B. On Day −1, Embryoid body (EB) formation (Stage 1-1) was carried out by placing individualized hiPSCs in E8 medium containing 10 μM Blebbistatin in T25 flasks on a bellydancer and culture overnight. On Day 0, lateral mesoderm differentiation (Stage 1-2) was initiated by changing the medium to a Stage 1-2 differentiation medium comprising IF-4 basal medium and supplemented with BMP4 (25 ng/mL), VEGF (15 ng/ml), bFGF (0.5 ng/mL) and CHIR99021 (4 μM) for 2 days. On Day 2, lateral mesoderm differentiation (Stage 1-3) continued for 1 day in a Stage 1-3 differentiation medium comprising IF-4 basal medium and supplemented with BMP4 (25 ng/mL), VEGF (50 ng/mL) and bFGF (0.5 ng/mL) and CHIR99021 (1 μM). On Day 3, HE specification (Stage 1-4) was initiated by adding a Stage 1-4 differentiation medium comprising IF-4 basal medium and supplemented with VEGF (15 ng/ml), bFGF (5 ng/ml), XAV939 (5 μM) for 1 day. […] On Day 11 of co-culture, iNK cells were collected and stained with CD56-PE antibody (BD, #555516), the percentage of CD56+ cells was analyzed by flow cytometry. The cytotoxicity of Stage 3 iNK cells towards K562 cells was detected by CFSE/7AAD assay after 4 hr co-culture at E:T of 3:1.

In a further data set the test system is iNK cells. Kind of data set: Stage 3 expansion of iNK cells co-cultured with feeder cells. The data set is classed as cell-based, human. The conditions noted are these: IL-18 (10-50 ng/mL) combined with IL-2 (100 IU/mL) vs IL-2 only, Stage 3, 2 weeks, FIG. 13B. The method, then: hiPSCs were prepared as described in CN108373998B. On Day −1, Embryoid body (EB) formation (Stage 1-1) was carried out by placing individualized hiPSCs in E8 medium containing 10 μM Blebbistatin in T25 flasks on a bellydancer and culture overnight. On Day 0, lateral mesoderm differentiation (Stage 1-2) was initiated by changing the medium to a Stage 1-2 differentiation medium comprising IF-4 basal medium and supplemented with BMP4 (25 ng/ml), VEGF (15 ng/ml), bFGF (0.5 ng/ml) and CHIR99021 (4 μM) for 2 days. On Day 2, lateral mesoderm differentiation (Stage 1-3) continued for 1 day in a Stage 1-3 differentiation medium comprising IF-4 basal medium and supplemented with BMP4 (25 ng/ml), VEGF (15 ng/mL) and bFGF (0.5 ng/mL) and CHIR99021 (1 μM). On Day 3, HE specification (Stage 1-4) was initiated by adding a Stage 1-4 differentiation medium comprising IF-4 basal medium and supplemented with VEGF (15 ng/ml), bFGF (5 ng/ml), XAV939 (5 μM) for 1 day. On Day 4 (the end of Stage 1-4), HP differentiation (Stage 1-5) in was initiated by adding a Stage 1-5 differentiation medium comprising IF-4 basal medium and supplemented with SCF (10 ng/ml), Flt3L (10 ng/ml), VEGF (15 ng/ml) and bFGF (5 ng/mL). […] On Day 14 of co-culture, iNK cells were collected and stained with CD56-PE antibody (BD, #555516), and the percentage of CD56+ cells was analyzed by flow cytometry. […]

On to “IL-18: interleukin added to Stage 3 expansion and maturation medium”, for which the “cytotoxicity of iNK cells” value in the data set on K562 cells was “significantly improve”. For the same substance, the “expansion fold of iNK cells” value in the data set with iNK cells is “improve the expansion fold”.
